Test results reported in patent US6200577A, “Anti-herpesviral agents and assays therefor” (priority 1996, dated 2001).
Entries after “also recorded” stand apart in the source; their conditions may differ.

Assays:
[1] = biological target: T1, VP16/full-length VP22 interaction (Human herpesvirus 1, UniProt P06492); test: Far Western analysis of peptides blocking VP16 binding to full-length VP22 (vUL49ep L-particle extract); set-up: species or system HSV-1; details: strips pre-incubated with 1 mg peptide, FIG. 8
T1 construct: Plasmid pETVP16 was used to express full-length VP16 under the control of the T7 RNA polymerase promoter; made in house; host or cells: VP16: E. coli BL21(DE3); VP22: L-particles of recombinant virus vUL49ep grown in BHK cells
Procedure: FIG. 8 Blocking of the interaction between VP16 and full length VP22 by pure peptides D and E. A vUL49ep L-particle extract was run on a 10% polyacrylamide gel and the proteins transferred to a nitrocellulose membrane. The blot was cut into strips, with each strip containing the equivalent of approximately 3×10^9 L-particles. Strips were pre-incubated with 1 mg of each of the following peptides: lane 2, no peptide; lane 3, peptide C; lane 4, peptide D; lane 5, peptide E. 2 μg of pure VP16 was then added to each incubation and bound VP16 was detected by LP1 antibody. Two strips were incubated with either LPl (lane 1) or 9220 antibody (lane 6), each at a dilution of 1:1000. The apparent molecular weights of VP16 (65 KDa) and tagged VP22 (40 KDa) are shown.
Following electrophoresis, proteins were electrotransferred to either Hybond or ProBlott (Applied Biosystems) membrane and the membrane was incubated in renaturation buffer (50 mM Tris-HCl, pH 8.0, 150 mM NaCl, 10% glycerol, 1 mM DTT) at 4° C. for 5-6 hours.
For membranes probed with either VP16 or VP22trunc, blocking was performed overnight as described for Western blot analysis. Probing with epitope-tagged VP22 or VP16 was performed in 20 mM Tris-HCl, pH 8.0, 250 mM NaCl for 1.5 hours at ambient temperature. Excess probe was removed by washing 4 times (10 minutes per wash) in 20 mM Tris-HCl, pH8.0, 250 mM NaCl, followed by incubation with the appropriate antibody at a dilution of 1:1000 in TTBS/1% gelatin for 1.5-2 hours. Bound antibody was detected as described for Western blot analysis.
The results presented thus far have established that peptides D and E block the interaction between VP16 and VP22trunc. The inhibitory effect of the peptides was further tested to examine whether they were capable of blocking the interaction of VP16 with full-length VP22.

[2] = Solubility of synthetic peptides in buffer; format: physicochemical; details: for Solubility following purification: HPLC-purified peptides; for Solubility: peptides dissolved in 20 mM Tris-HCl, pH 8.0, 250 mM NaCl, unpurified preparations
Procedure: Synthesis and Purification of Oligopeptides. Peptides were synthesised by continuous flow Fmoc chemistry (Atherton and Sheppard, 1989; McLean et al., 1991) and, where stated in the text, were purified by preparative reverse-phase HPLC (Owsianka et al., 1993). The Mr values of peptides were determined by fast atom bombardment mass spectrometry (M-Scan) and corresponded to the predicted values. Peptides were dissolved in 20 mM Tris-HCl, pH 8.0, 250 mM NaCl and centrifuged at 11,500 g for 1 minute prior to use. […] Precipitates were removed by centrifugation before use.

[3] = biological target: T2, VP16/VP22trunc interaction (Human herpesvirus 1, UniProt P06492); test: ELISA of peptide inhibition of VP16 binding to VP22trunc; set-up: species or system HSV-1; details: for Inhibition of VP16 binding to VP22trunc in ELISA: D and E pure preparations, effect at 100 and 500 μg/ml, VP16 1.6 μg/ml, 160 ng VP22trunc, FIG. 9; for IC50: converted from μg/ml, maximum molarities, read-out: Molarity for 50% inhibition of VP16 binding (ELISA); for IC50 / Concentration for 50% inhibition of VP16 binding (ELISA): peptides not 100% soluble; for Concentration for 50% inhibition of VP16 binding (ELISA): pure peptide preparations, maximum values
T2 construct: Plasmid pETVP16 was used to express full-length VP16 under the control of the T7 RNA polymerase promoter; made in house; host or cells: E. coli BL21(DE3)
Procedure: FIG. 9 Inhibitory effect of peptides D and E on the VP22trunc-VP16 interaction in ELISAs. Microtitre plates were coated with 160 ng of VP22trunc and blocked with PBS/10% NCS. Before addition to the wells, five-fold dilutions of the peptides, ranging from 500 μg/ml to 1 g/ml, were incubated with VP16 (1.6 μg/ml). Bound VP16 was detected with LP1 at a dilution of 1:1000. The legend for the peptides added is shown to the right of the graph. Values are shown relative to those obtained in the absence of the peptide.
(§1) Dilutions of proteins in PBS were coated overnight onto flat bottomed micro-titre plates (Dynatech) at 37° C. and then blocked with either 2% BSA or 10% new-born calf serum (NCS) in PBS for 1 hour at 37° C. Specific binding of a second protein to the plate-bound protein was performed for 1.5-2 hours at ambient temperature. a Excess secondary protein was removed by washing four times with PBS, 0.3% Tween 20. Bound protein was detected by incubation for 1.5-2 hours with LP1 antibody in PBS, 1% gelatin or PBS, 2% NCS. The bound antibody was detected by incubation for 1 hour at ambient temperature with anti-mouse antibody conjugated to HRP (1:500) and visualised with Smg/ml enzyme substrate 2,2'-azino-bis(3-ethylbenzthiazoline-6-sulphonic acid) (ABTS; Sigma) in citrate-phosphate buffer containing 6 μl hydrogen peroxide in a total volume of 20 ml. Optical densities were measured on a Titertek Multiscan PLUS instrument.
To adopt a more quantitative approach, an ELISA for VP16 binding to VP22trunc was developed. Optimal conditions were determined by coating wells with various quantities of VP22trunc followed by blocking with 2% BSA. Plates were then incubated with dilutions of VP16 and the bound VP16 detected with LP1.
The studies presented above have provided strong evidence in support of peptide inhibition of the interaction between VP16 and VP22. However, quantitative analysis of the ability of peptides to block any interaction is difficult to perform by the above methods. Therefore, using the ELISA system described in Results Section 2(iii) with the exception that PBS/10% NCS was utilised as a blocking agent, the inhibitory effects of peptides D and E were examined. This modification arose due to nonspecific binding of the peptides to wells when BSA was used for blocking (data not shown).

[4] = biological target: T3, VP16 (Human herpesvirus 1, UniProt P06492); test: ELISA of direct binding of VP16 to plate-coated peptides; set-up: species or system HSV-1; details: wells coated with peptide up to 500 μg/ml; VP16 1.6 μg/ml; FIG. 10
T3 construct: Plasmid pETVP16 was used to express full-length VP16 under the control of the T7 RNA polymerase promoter; made in house; host or cells: E. coli BL21(DE3)
Procedure: FIG. 10 Binding of VP16 to peptides. Microtitre plates were coated with 5-fold dilutions of peptides ranging from 500 μg/ml to 1 μg/ml and blocked with PBS/10% NCS. VP16 was then added to a final concentration of 1.6 μg/ml and detected with LP1. The legend for the peptides added is shown to the right of the graph.
as §1
To examine whether VP16 could bind directly to the peptides, wells were coated with each peptide (A-J) at a range of concentrations from […] to 500 μg/ml and the plate was then blocked with […]. […] Nonetheless, the data for peptides D and E implicate direct binding of these peptides to VP16 as the mechanism for inhibiting its interaction with VP22. Peptide H also was active in experiments which prevented gB binding to VP22trunc [Section 4 (iii)] and thus also forms an aspect of the invention.

T3 sequence (P06492 whole entry): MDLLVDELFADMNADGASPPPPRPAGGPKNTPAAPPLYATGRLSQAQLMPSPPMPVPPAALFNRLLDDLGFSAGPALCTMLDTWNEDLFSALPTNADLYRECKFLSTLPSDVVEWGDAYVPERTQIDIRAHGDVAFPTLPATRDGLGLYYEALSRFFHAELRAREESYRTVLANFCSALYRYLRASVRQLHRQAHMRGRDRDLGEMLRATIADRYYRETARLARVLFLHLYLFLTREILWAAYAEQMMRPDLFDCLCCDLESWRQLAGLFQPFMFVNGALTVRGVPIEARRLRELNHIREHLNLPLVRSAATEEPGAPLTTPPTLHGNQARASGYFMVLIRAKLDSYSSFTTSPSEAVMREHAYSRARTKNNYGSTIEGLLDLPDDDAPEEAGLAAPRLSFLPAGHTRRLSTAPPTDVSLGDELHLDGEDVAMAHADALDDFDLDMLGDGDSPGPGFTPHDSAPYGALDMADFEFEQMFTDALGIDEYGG
T2 sequence (P06492 whole entry): as above
T1 sequence (P06492 whole entry): as above

Sequence	Blocking of VP16 binding to full-length VP22 (Far Western) [1]	Solubility following purification [2]	Solubility [2]	Inhibition of VP16 binding to VP22trunc in ELISA [3]	IC50 [3] [µM]	Concentration for 50% inhibition of VP16 binding (ELISA) [3] [µg/mL]	Direct binding of VP16 to plate-coated peptide (ELISA) [4]
TPRVAGFNKRVFCAAVGRLA [Peptide D]	completely blocks binding of VP16 to VP22	not 100% soluble	partly; also recorded: partially insoluble	could inhibit binding of VP16 to VP22trunc	99.7	212.5	binding was found with higher concentrations
FSTAPPNPDAPWTPRVAGFN [Peptide C]	does not hinder the interaction		soluble	neither peptides B, C nor F had any effect			binding did not occur
CAAVGRLAAMHARMAAVQLW [Peptide E]	completely blocks binding of VP16 to VP22	not 100% soluble	partly; also recorded: partially insoluble	could inhibit binding of VP16 to VP22trunc	44.1	85.7	binding was found with higher concentrations
